Data taken from publication PMC9542197 (Chembiochem, 2022).

Columns and labels:
[1] = target: T1, TmMtaD (SAH deaminase from Thermotoga maritima) (Thermotoga maritima, UniProt Q9X034); assay: GDH-coupled NADH oxidation at […] nm; assay type: biochemical; settings: 50 mM potassium phosphate pH 7.5, 50 mM KCl, 20 mM MgCl2
T1 sequence (Q9X034 1-406): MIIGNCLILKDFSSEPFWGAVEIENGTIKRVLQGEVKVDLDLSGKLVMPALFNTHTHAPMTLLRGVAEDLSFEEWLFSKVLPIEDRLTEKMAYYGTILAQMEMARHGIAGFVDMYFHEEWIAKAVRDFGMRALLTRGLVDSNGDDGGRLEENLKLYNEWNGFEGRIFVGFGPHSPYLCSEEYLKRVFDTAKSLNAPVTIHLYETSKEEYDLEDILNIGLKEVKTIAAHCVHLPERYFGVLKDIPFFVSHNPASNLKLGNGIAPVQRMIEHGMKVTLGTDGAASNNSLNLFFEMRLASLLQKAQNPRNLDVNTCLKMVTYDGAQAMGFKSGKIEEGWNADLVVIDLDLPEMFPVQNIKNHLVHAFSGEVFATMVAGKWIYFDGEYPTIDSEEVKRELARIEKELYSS

NCCc1ccc(O)c(O)c1 = assay: purified protein; settings: 200 μM SAM, 50 mM HEPES pH 7.5, 100 mM KCl, 20 mM MgCl2, 25 °C
purified protein = substrate: NCCc1ccc(O)c(O)c1; assay: purified protein; assay type: biochemical, Rattus norvegicus; settings: 200 μM SAM, 50 mM HEPES pH 7.5, 100 mM KCl, 20 mM MgCl2, 25 °C

Q: With `Nc1ncnc2c1ncn2[C@@H]1O[C@H](CSCC[C@H](N)C(=O)O)[C@@H](O)[C@H]1O` [SAH] as the molecule, how does the Km [1] read?
A: The Km was 180 ± 60 µM.

Q: Which results are given for “MxSafC (SafC O-MT from Myxococcus xanthus) (Myxococcus xanthus)”?
A: Km (NCCc1ccc(O)c(O)c1): 270 ± 14 µM; kcat (NCCc1ccc(O)c(O)c1): 0.039 ± 0.001 s⁻¹

B1: RnCOMT (catechol-O-MT from Rattus norvegicus) (Rattus norvegicus) (protein)
chain: MGDTKEQRILRYVQQNAKPGDPQSVLEAIDTYCTQKEWAMNVGDAKGQIMDAVIREYSPSLVLELGAYCGYSAVRMARLLQPGARLLTMEMNPDYAAITQQMLNFAGLQDKVTILNGASQDLIPQLKKKYDVDTLDMVFLDHWKDRYLPDTLLLEKCGLLRKGTVLLADNVIVPGTPDFLAYVRGSSSFECTHYSSYLEYMKVVDGLEKAIYQGPSSPDKS
Q: What does the source list for B1?
A: Km (purified protein): 144 ± 15 µM; kcat (purified protein): 0.072 ± 0.002 s⁻¹
